{"source": "patent US20210317201A1", "binders": {"B1": {"name": "antibody C1273 (disclosed in WO 2007/005955) (antibody, from another filing, V domains shown)", "VH": "DVNLVESGGGLVKPGGSLKLSCAASGFTFSSYTMSWVRQTPEKRLEWVATISSGGTYTYYPDSVKGRFTISRDNAKNTLYLQMSSLKSEDTAMFYCTRDNHAYDRGPFFDYWGQGATLTVSS", "VL": "DIVMSQSPSSLVVSVGEKVTMSCKSSQNLFYRSNQKNHLAWYQQKPGQSPTLLIYWTSTRESGVPDRFTGSGSGTDFTLTISRVKAEDLAVYYCQQYYSYPPTFGGGTKLEIK"}, "B2": {"name": "Antibody 6H12 (disclosed in WO 2007/027714) (antibody, from another filing, V domains shown)", "VH": "EVHLQQSGPELVKPGASVKMSCKASGYTFNRYLIHWVKQKPGQGLEWIGYINPNNDGTNYNEKFKGKATLTSDKSSSTAYMELSSLTSEDSAVYYCAANWDQAYWGQGTLVTVSA", "VL": "DIVMTQSPATLSVTPGDRVSLSCRASQSISDYLHWYQQKSHESPRLLIKYTSQSISGIPSRFSGSGSGSDFTLSINSVEPEDVGVYYCQNGHSFPFTFGSGTKLEIKR"}, "B3": {"name": "Antibody B (antibody, human IgG1, kappa, L234A L235A, V domains shown)", "VH": "QVQLVQSGAEVKKPGSSVKVSCKASGFTFTDQTIHWVRQAPGQGLEWMGYIYPRDDSPKYNENFKGKVTLTADKSTSTAYMELSSLRSEDTAVYYCAIPDRSGYAWFIYWGQGTLVTVSS", "VL": "DIQMTQSPSSLSASVGDRVTITCKASRDVAIAVAWYQQKPGKVPKLLIYWASTRHTGVPSRFSGSGSRTDFTLTISSLQPEDVADYFCHQYSSYPFTFGSGTKLEIKR"}, "B4": {"name": "Antibody D (antibody, human IgG1, kappa, L234A L235A, V domains shown)", "VH": "B3 VH", "VL": "B3 VL with I48L, Y49F, S60D, R68G, V83L, F87Y, S100Q"}}, "key": {"[1]": {"target": "natural human IL-23 from activated THP-1 cells (human) (UniProt P29460)", "sequence (chain, as listed by the source limits assumed, chain 1 of 2)": "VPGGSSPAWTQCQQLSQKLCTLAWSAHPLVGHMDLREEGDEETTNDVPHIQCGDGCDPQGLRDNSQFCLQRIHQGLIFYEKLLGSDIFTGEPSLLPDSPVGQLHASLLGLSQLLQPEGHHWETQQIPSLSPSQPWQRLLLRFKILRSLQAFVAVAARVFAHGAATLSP", "sequence (P29460 23-328 limits assumed, chain 2 of 2)": "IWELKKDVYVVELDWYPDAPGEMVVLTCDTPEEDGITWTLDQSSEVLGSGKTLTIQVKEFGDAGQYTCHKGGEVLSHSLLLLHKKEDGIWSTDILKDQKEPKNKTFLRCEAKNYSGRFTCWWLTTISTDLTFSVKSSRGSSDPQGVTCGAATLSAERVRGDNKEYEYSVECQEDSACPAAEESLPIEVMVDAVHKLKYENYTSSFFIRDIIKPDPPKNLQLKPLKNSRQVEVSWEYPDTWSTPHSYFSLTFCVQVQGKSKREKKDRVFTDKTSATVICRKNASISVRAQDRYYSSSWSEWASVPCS", "experiment": "cell-based or functional assay"}, "[2]": {"target": "recombinant human IL-23 (human) (UniProt P29460)", "sequence (chain, as listed by the source limits assumed, chain 1 of 2)": "as the sequence (chain, as listed by the source limits assumed, chain 1 of 2) above", "sequence (P29460 23-328 limits assumed, chain 2 of 2)": "as the sequence (P29460 23-328 limits assumed, chain 2 of 2) above", "experiment": "cell-based or functional assay"}, "[3]": {"target": "Human IL-23 no linker (human) (UniProt P29460)", "sequence (chain, as listed by the source limits assumed, chain 1 of 2)": "as the sequence (chain, as listed by the source limits assumed, chain 1 of 2) above", "sequence (P29460 23-328 limits assumed, chain 2 of 2)": "as the sequence (P29460 23-328 limits assumed, chain 2 of 2) above", "experiment": "SPR, ProteOn XPR36, global 1:1 fit"}, "[4]": {"target": "cynomologous IL-23 (cynomolgus monkey)", "experiment": "SPR, ProteOn XPR36, global 1:1 fit"}, "[5]": {"target": "Human IL-23 with linker (human) (UniProt P29460)", "experiment": "SPR, ProteOn XPR36, global 1:1 fit"}}, "note": "Residue numbers refer to the chain shown, from its start. Values joined by “and” are separate entries in the source; they are usually repeats but may differ in a detail not shown here. Equal entries are not always repeated."}
{"binder": "B1", "values": [{"measurement": "IC50, IL-23 stimulated IL-17 production from mouse splenocytes", "setting": "[1]", "value": "0.093 nM and 0.044 nM"}, {"measurement": "IC50, IL-23 induced STAT3 phosphorylation in human DB cells (phospho-STAT3 ELISA)", "setting": "[2]", "value": "0.163 nM and 0.438 nM"}]}
{"binder": "B2", "values": [{"measurement": "IC50, IL-23 stimulated IL-17 production from mouse splenocytes", "setting": "[2]", "value": "1.6 nM and 0.806 nM and 1.3 nM"}, {"measurement": "Kd", "setting": "[3]", "value": 0.214, "unit": "nM"}, {"measurement": "koff", "setting": "[3]", "value": 0.000107, "unit": "s⁻¹"}, {"measurement": "kon", "setting": "[3]", "value": 499000, "unit": "M⁻¹ s⁻¹"}, {"measurement": "Kd", "setting": "[4]", "value": 0.157, "unit": "nM"}, {"measurement": "koff", "setting": "[4]", "value": 0.000156, "unit": "s⁻¹"}, {"measurement": "kon", "setting": "[4]", "value": 991000, "unit": "M⁻¹ s⁻¹"}]}
{"binder": "B3", "values": [{"measurement": "Kd", "setting": "[5]", "value": "< 0.001", "unit": "nM"}, {"measurement": "koff", "setting": "[5]", "value": "< 1e-06", "unit": "s⁻¹"}, {"measurement": "kon", "setting": "[5]", "value": 356000, "unit": "M⁻¹ s⁻¹"}]}
{"binder": "B4", "values": [{"measurement": "Kd", "setting": "[5]", "value": 0.107, "unit": "nM"}, {"measurement": "koff", "setting": "[5]", "value": "4.07e-05", "unit": "s⁻¹"}, {"measurement": "kon", "setting": "[5]", "value": 382000, "unit": "M⁻¹ s⁻¹"}]}
